Laboratory results: patent publication US20140235820A1, “METHODS AND COMPOSITIONS FOR MODULATING THE Wnt PATHWAY” (Genentech, Inc., priority 2010, published 2014)

T1: LRP6 E2 (Homo sapiens, UniProt O75581)
T1 construct: construct E2-amino acids D235-E631 of LPR6; made in house; host or cells: Tni insect cells (baculovirus, secreted)
T1 sequence (O75581 325-631 limits assumed): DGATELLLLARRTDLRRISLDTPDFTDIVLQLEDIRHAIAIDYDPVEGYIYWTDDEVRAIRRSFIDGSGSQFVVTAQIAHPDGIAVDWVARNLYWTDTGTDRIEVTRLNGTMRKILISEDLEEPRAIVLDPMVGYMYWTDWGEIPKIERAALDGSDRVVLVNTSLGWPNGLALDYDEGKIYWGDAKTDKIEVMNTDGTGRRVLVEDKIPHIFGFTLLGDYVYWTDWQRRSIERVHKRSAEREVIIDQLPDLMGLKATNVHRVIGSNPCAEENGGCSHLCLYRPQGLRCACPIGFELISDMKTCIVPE

T2: LRP6 E1 (Homo sapiens, UniProt O75581)
T2 construct: construct E1-amino acids A20-D325 of LPR6; made in house; host or cells: Tni insect cells (baculovirus, secreted)
T2 sequence (O75581 20-325): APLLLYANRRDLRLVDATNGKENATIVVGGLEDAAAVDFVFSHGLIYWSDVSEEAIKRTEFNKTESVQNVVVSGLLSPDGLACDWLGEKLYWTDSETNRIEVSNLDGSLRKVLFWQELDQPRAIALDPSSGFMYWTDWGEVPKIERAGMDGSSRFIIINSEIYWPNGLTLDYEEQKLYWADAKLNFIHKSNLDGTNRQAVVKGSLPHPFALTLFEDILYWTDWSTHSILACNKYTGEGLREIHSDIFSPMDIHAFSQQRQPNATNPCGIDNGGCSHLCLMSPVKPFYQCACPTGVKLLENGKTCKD

T3: human LRP6 construct E1E2 (amino acids A20-E631) (human, UniProt O75581 20-631, biotinylated for biolayer interferometry)
T3 construct: range 20-631; also called LRP6 E1E2
T3 sequence (looked up): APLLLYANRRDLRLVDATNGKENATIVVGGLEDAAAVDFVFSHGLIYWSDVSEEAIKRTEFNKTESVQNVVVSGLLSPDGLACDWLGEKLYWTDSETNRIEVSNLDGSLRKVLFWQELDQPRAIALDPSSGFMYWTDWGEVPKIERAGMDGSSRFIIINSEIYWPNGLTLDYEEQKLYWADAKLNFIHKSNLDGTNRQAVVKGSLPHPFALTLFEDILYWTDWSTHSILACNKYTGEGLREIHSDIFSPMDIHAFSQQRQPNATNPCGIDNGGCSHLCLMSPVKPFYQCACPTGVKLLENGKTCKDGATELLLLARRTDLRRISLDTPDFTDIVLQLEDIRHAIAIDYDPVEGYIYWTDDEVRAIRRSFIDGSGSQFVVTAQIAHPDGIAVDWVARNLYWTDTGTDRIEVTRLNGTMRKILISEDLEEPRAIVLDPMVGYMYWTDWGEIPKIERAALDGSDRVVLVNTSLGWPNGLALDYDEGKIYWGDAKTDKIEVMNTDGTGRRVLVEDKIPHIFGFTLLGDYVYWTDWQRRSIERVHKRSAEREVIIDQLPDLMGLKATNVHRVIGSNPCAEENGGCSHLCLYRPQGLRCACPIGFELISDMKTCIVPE

B1: Dkk1 Ile42Glu (ligand, human, UniProt O94907 32-266, looked up)
chain: TLNSVLNSNAEKNLPPPLGGAAGHPGSAVSAAPGILYPGGNKYQTIDNYQPYPCAEDEECGTDEYCASPTRGGDAGVQICLACRKRRKRCMRHAMCCPGNYCKNGICVSSDQNHFRGEIEETITESFGNDHSTLDGYSRRTTLSSKMYHTKGQEGSVCLRSSDCASGLCCARHFWSKICKPVLKEGQVCTKHRRKGSHGLEIFQRCYCGEGLSCRIQKDHHQASNSSRLHTCQRH
notes: also called Dkk1 I42E

Key:
LRP6 E2 = molecular target: T1, LRP6 E2; experiment: Biolayer interferometry binding to LRP6 E2
Protocol: (§1) Binding kinetics were measured by biolayer interferometry using an Octet Red instrument (ForteBio) as previously described (11). Streptavidin (SA) biosensors were loaded with biotinylated hLRP6 in 50 mMTris, pH 8, 300 mM NaCl, 5% (v/v) glycerol, and 0.05% (w/v) Triton X-100. The loaded biosensors were washed in the same buffer before carrying out association and dissociation measurements for the indicated times. The Kd of each interaction was determined using steady state-analysis through the Octet Red software v6.3. Each reported value represents an average of three or more experiments at different concentrations, with a fitted experimental curve for which the square of the correlation coefficient (R^2) is above 0.96.
(§2) The interaction of the different Dkks and sclerostin with various domains of LRP6 was measured using a biolayer interferometry assay (11). Purified receptors contained individual β-propeller-EGF-like units (E1, E2, or E4), two β-propellers (E1E2 or E3E4), or four β-propellers (E1E4))—as follows:
(§3) Human LRP6: construct E1E4-amino acids A20-Q1253 of LPR6; construct E1E2-amino acids A20-E631 of LPR6; construct E3E4 amino acids E631-Q1253 of LPR6; construct E1-amino acids A20-D325 of LPR6; construct E2-amino acids […]-E631 of LPR6; construct E4-T933-Q1253. The individual LRP6 β-propeller E3 could not be expressed.

LRP6 E1 = molecular target: T2, LRP6 E1; experiment: Biolayer interferometry binding to LRP6 E1
Protocol: as §1, §2, §3

LRP6 = experiment: Competition binding between Dkk1 and other Wnt pathway inhibitors (preloaded Dkk1); parameters: species or system human; conditions: Dkk1 100 nM preloaded, test ligand 100 nM
Protocol: FIG. 8. Competition binding between Dkk1 and other Wnt pathway inhibitors. The indicated LRP6 construct was preloaded onto biosensor tips. Dkk1 (100 nM) (or buffer control) and the test ligand (100 nM) were loaded sequentially onto the LRP6 tips. (A) Dkk2 competition with Dkk1. (B) Sclerostin competition with Dkk1. Percent binding in the presence of Dkk1 is shown relative to buffer control.
as §1
To assess whether Dkk1, Dkk2, and sclerostin might bind to the same site on LRP6 E1, Dkk2 or sclerostin binding was measured in the presence of preloaded Dkk1 (100 nM). […]

[1] = molecular target: T3, human LRP6 construct E1E2 (amino acids …); experiment: BLI affinity
Protocol: as §1, with “(R²)” for “(R^2)”

binding to LRP6 E2 (in words) (LRP6 E2) | binding to LRP6 E1 (in words) (LRP6 E1) | binding to LRP6 in the presence of preloaded Dkk1 (LRP6) | fold loss in affinity against wild-type Dkk1 [1] | Molecule
Partial binding | bind with high affinity |  |  | Dkk1: Dickkopf 1 protein, Wnt pathway inhibitor, expressed in insect cells (NSNAIKN)
very weak or non-specific binding | binds | very strongly inhibited |  | sclerostin: Sclerostin protein, Wnt pathway inhibitor, expressed in insect cells (LPNAIGR)
 |  |  | > 364 fold | B1
